The source of these data is the supplement of paper PMC7877785.

± gives the uncertainty stated by the source.

The nature of the data set: self-splicing fitness, log relative to wild type (ln ratio); higher = more splicing; Tetrahymena group I intron in knt gene, E. coli kanamycin selection, DiMSum; sequences stand for … in CUCUCU…GGAGGGAAAAGUUAUCAGGCAUGCACCUGGUAGCUAGUCUUUAAACCAAUAGAUUGCAUCGGUUUAAAAGGCAAGACCGUCAAAUUGCGGGAAAGGGGUCAACAGCCGUUCAGUACCAAGUCUCAGGGGAAACUUUGAGAUGGCCUUGCAAAGGGUAUGGUAAUAAGCUGACGGACAUGGUCCUAACCACGCAGCCAAGUCCUAAGUCAACAGAUCUUCUGUUGAUAUGGAUGCAGUUCACAGACUAAAUGUCGGUCGGGGAAGAUGUAUUCUUCUCAUAAGAUAUAGUCGGACCUCUCCUUAAUGGGAGCUAGCGGAUGAAGUGAUGCAACACUGGAGCCGCUGGGAACUAAUUUGUAUGCGAAAGUAUAUUGAUUAGUUUUGGAGUACUCGUGGUCG
A digest of the protocol:
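DiMSum derived fitness as the error-weighted combination of fold changes across replicates, kanamycin versus no kanamycin, normalised to wild type. E. coli BL21(DE3) held the library, which randomised all eight P1ex-region intron nucleotides within the knt kanamycin-resistance gene on pET-22b(+). Six replicate transformations grew overnight at 37°C or 30°C on LB agar with or without 25 μg/mL kanamycin, also containing 100 μg/mL carbenicillin, 50 μM IPTG and 0.2% rhamnose, and pooled colonies were amplicon-sequenced on an Illumina HiSeq 2500.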

For CCUUAGCAAUAUUACGAGGG, the “self-splicing fitness (ln)” value is, setting by setting: (30 °C) -3.54 ± 0.24; (37 °C) -1.39 ± 0.21.
In the same order, the values of GAAUAGCAAUAUUACGGAAA are -1.98 ± 0.16 and -1.31 ± 0.14.
Take GUAUAGCAAUAUUACGCGUU: the “self-splicing fitness (ln)” value runs as follows: (30 °C) -1.21 ± 0.11; (37 °C) -1.33 ± 0.17.
In the case of UAAAAGCAAUAUUACGCCGU, the “self-splicing fitness (ln)” value (30 °C) was -3.01 ± 0.21 and the “self-splicing fitness (ln)” value (37 °C) is -2.1 ± 0.22.
For GAUCAGCAAUAUUACGAGGA, in that order: -1.43 ± 0.13 and -1.85 ± 0.13.
In the same order, the values of CGCCAGCAAUAUUACGGUCG are -4.17 ± 0.19 and -2.5 ± 0.2.
Take AGCCAGCAAUAUUACGACCG: the “self-splicing fitness (ln)” value runs as follows: (30 °C) -3.83 ± 0.32; (37 °C) -1.89 ± 0.24.
Turning to CCUAAGCAAUAUUACGAAUU, the “self-splicing fitness (ln)” value reads like this: (30 °C) -3.89 ± 0.22; (37 °C) -1.79 ± 0.21.
In the same order, the values of GUUCAGCAAUAUUACGCGAG are -0.511 ± 0.11 and -0.381 ± 0.11.
In the same order, the values of UAACAGCAAUAUUACGGCUU are -0.716 ± 0.082 and -0.0863 ± 0.1.
For the sequence AACAAGCAAUAUUACGUAAA, the “self-splicing fitness (ln)” value is, setting by setting: (30 °C) -2.36 ± 0.09; (37 °C) -1.17 ± 0.098.
For the sequence UUUGAGCAAUAUUACGGGUA, the “self-splicing fitness (ln)” value (30 °C) was -2.8 ± 0.46.
In the case of UACGAGCAAUAUUACGGGAA, the “self-splicing fitness (ln)” value runs as follows: (30 °C) -1.91 ± 0.2; (37 °C) -2.85 ± 0.4.
For AGACAGCAAUAUUACGGAUA, the “self-splicing fitness (ln)” value by setting is: (30 °C) -2.97 ± 0.12; (37 °C) -2.17 ± 0.13.
In the same order, the values of UUCGAGCAAUAUUACGUCGG are -2.96 ± 0.28 and -1.78 ± 0.29.
For AUCCAGCAAUAUUACGAAUU, in that order: -1.43 ± 0.084 and -1.04 ± 0.11.
In the same order, the values of UCUGAGCAAUAUUACGAUUA are -1.85 ± 0.17 and -1.49 ± 0.21.
On to UCAGAGCAAUAUUACGGGUU, for which the “self-splicing fitness (ln)” value is -3.76 ± 0.46 (30 °C) and -1.58 ± 0.26 (37 °C).
For GGAUAGCAAUAUUACGCACU, in that order: -2.36 ± 0.15 and -1.05 ± 0.15.
In the same order, the values of AGGCAGCAAUAUUACGCAUA are -0.866 ± 0.081 and -1.07 ± 0.093.
In the same order, the values of GUAUAGCAAUAUUACGGAUA are -1.43 ± 0.27 and -1.55 ± 0.28.
For the sequence GGCUAGCAAUAUUACGUCUC, the “self-splicing fitness (ln)” value is, setting by setting: (30 °C) -0.325 ± 0.094; (37 °C) -0.0256 ± 0.11.
Take UUCGAGCAAUAUUACGGAUG: the “self-splicing fitness (ln)” value is -3.22 ± 0.38 (30 °C) and -2.86 ± 0.32 (37 °C).
In the same order, the values of AAAGAGCAAUAUUACGGAAG are -3.76 ± 0.21 and -2.62 ± 0.33.
As to CCCCAGCAAUAUUACGCGUU, the “self-splicing fitness (ln)” value (30 °C) was -4.16 ± 0.17 and the “self-splicing fitness (ln)” value (37 °C) is -2.57 ± 0.19.
Consider CGUCAGCAAUAUUACGACAC, for which the “self-splicing fitness (ln)” value runs as follows: (30 °C) -1 ± 0.14; (37 °C) 0.484 ± 0.13.
Regarding CCCCAGCAAUAUUACGCAAA, the “self-splicing fitness (ln)” value is -3.28 ± 0.14 (30 °C) and -2.44 ± 0.18 (37 °C).
In the same order, the values of UUGAAGCAAUAUUACGCUGU are -1.96 ± 0.14 and -1.84 ± 0.16.
Regarding CUUUAGCAAUAUUACGAACG, the “self-splicing fitness (ln)” value is 0.602 ± 0.16 (30 °C) and 0.157 ± 0.19 (37 °C).
For CUGUAGCAAUAUUACGGAGU, in that order: -3.65 ± 0.23 and -2.74 ± 0.24.
Take UUCUAGCAAUAUUACGAAUU: the “self-splicing fitness (ln)” value is -2.96 ± 0.23 (30 °C) and -1.58 ± 0.18 (37 °C).
Turning to AAUUAGCAAUAUUACGGGCU, the “self-splicing fitness (ln)” value is -2.04 ± 0.23 (30 °C) and -1.64 ± 0.26 (37 °C).
For AAAGAGCAAUAUUACGGGAU, in that order: -4.18 ± 0.23 and -2.09 ± 0.17.
In the same order, the values of UGUUAGCAAUAUUACGGCCC are -2.13 ± 0.36 and -1.13 ± 0.41.
In the case of CGACAGCAAUAUUACGGGCG, the “self-splicing fitness (ln)” value is, setting by setting: (30 °C) -1.71 ± 0.17; (37 °C) -1.81 ± 0.19.
As for UUUCAGCAAUAUUACGUGGA, the “self-splicing fitness (ln)” value was -3.32 ± 0.22 (30 °C) and -2.3 ± 0.35 (37 °C).
For GAUCAGCAAUAUUACGCGGG, in that order: -2.31 ± 0.1 and -1.33 ± 0.11.
For CGUUAGCAAUAUUACGCGUC, the “self-splicing fitness (ln)” value (30 °C) was -3.47 ± 0.23.
As for GCGAAGCAAUAUUACGACCA, the “self-splicing fitness (ln)” value runs as follows: (30 °C) -0.945 ± 0.21; (37 °C) -0.159 ± 0.38.
In the same order, the values of GUCGAGCAAUAUUACGUUUC are -2.08 ± 0.21 and -1.88 ± 0.2.
For GUAUAGCAAUAUUACGGCUU, in that order: -0.746 ± 0.13 and 1.21 ± 0.2.
UUUGAGCAAUAUUACGACCU: the “self-splicing fitness (ln)” value is -2.7 ± 0.26 (30 °C) and -1.02 ± 0.34 (37 °C).
For the sequence AGUCAGCAAUAUUACGAUAC, the “self-splicing fitness (ln)” value (30 °C) was -1.69 ± 0.12 and the “self-splicing fitness (ln)” value (37 °C) was -0.336 ± 0.11.
On to CUCUAGCAAUAUUACGACGC, for which the “self-splicing fitness (ln)” value (37 °C) was -1.31 ± 0.35.
On to UAUAAGCAAUAUUACGUGUG, for which the “self-splicing fitness (ln)” value (30 °C) was -0.923 ± 0.073 and the “self-splicing fitness (ln)” value (37 °C) was -0.446 ± 0.088.
Consider UGAGAGCAAUAUUACGUACC, for which, where the note is “30 °C”, the “self-splicing fitness (ln)” value was -2.65 ± 0.36.
Take AGUCAGCAAUAUUACGCCCA: the “self-splicing fitness (ln)” value was -1.19 ± 0.13 (30 °C) and 0.479 ± 0.18 (37 °C).
For AUCAAGCAAUAUUACGCAAU, in that order: -2.22 ± 0.14 and -1.56 ± 0.14.
For AAAGAGCAAUAUUACGCAUG, in that order: -2.55 ± 0.18 and -1.7 ± 0.098.
As for AUGUAGCAAUAUUACGCGCC, the “self-splicing fitness (ln)” value reads like this: (30 °C) -0.455 ± 0.077; (37 °C) -0.312 ± 0.096.
In the same order, the values of AGGCAGCAAUAUUACGAUUU are -0.23 ± 0.085 and -0.332 ± 0.1.
For the sequence GGCAAGCAAUAUUACGCAUC, the “self-splicing fitness (ln)” value was -0.644 ± 0.078 (30 °C) and -0.532 ± 0.1 (37 °C).
UGAAAGCAAUAUUACGACGC: the “self-splicing fitness (ln)” value is, setting by setting: (30 °C) -2.04 ± 0.19; (37 °C) 0.0256 ± 0.17.
For CUACAGCAAUAUUACGAACA, in that order: -2.94 ± 0.18 and -2.49 ± 0.21.
As for UGGUAGCAAUAUUACGCGCC, the “self-splicing fitness (ln)” value was -1.45 ± 0.3 (30 °C) and -2.02 ± 0.42 (37 °C).
In the same order, the values of UGCGAGCAAUAUUACGGUGA are -2.28 ± 0.18 and -1.49 ± 0.16.
Regarding GGUAAGCAAUAUUACGUGGC, the “self-splicing fitness (ln)” value is, setting by setting: (30 °C) -2.67 ± 0.15; (37 °C) -1.29 ± 0.16.
For ACACAGCAAUAUUACGUAAU, the “self-splicing fitness (ln)” value by setting is: (30 °C) -2.76 ± 0.085; (37 °C) -1.73 ± 0.12.
As for GUGCAGCAAUAUUACGAGUC, the “self-splicing fitness (ln)” value runs as follows: (30 °C) -2.57 ± 0.1; (37 °C) -0.808 ± 0.099.
In the case of UAUCAGCAAUAUUACGAAAC, the “self-splicing fitness (ln)” value (37 °C) is -2.08 ± 0.32.
For CCGAAGCAAUAUUACGAAUU, the “self-splicing fitness (ln)” value is, setting by setting: (30 °C) -3.28 ± 0.4; (37 °C) -2.87 ± 0.28.
Consider AGAUAGCAAUAUUACGAAAG, for which the “self-splicing fitness (ln)” value reads like this: (30 °C) -2.68 ± 0.2; (37 °C) -1.23 ± 0.21.
Regarding UCCCAGCAAUAUUACGAGCA, the “self-splicing fitness (ln)” value by setting is: (30 °C) -0.711 ± 0.1; (37 °C) 0.0665 ± 0.13.
In the case of CCGUAGCAAUAUUACGCGUC, the “self-splicing fitness (ln)” value (30 °C) was -3.42 ± 0.15 and the “self-splicing fitness (ln)” value (37 °C) is -1.78 ± 0.15.
For CGUCAGCAAUAUUACGUAAA, the “self-splicing fitness (ln)” value is, setting by setting: (30 °C) -1.97 ± 0.06; (37 °C) -1.21 ± 0.097.
In the case of GCCCAGCAAUAUUACGAUGU, the “self-splicing fitness (ln)” value by setting is: (30 °C) 0.0553 ± 0.048; (37 °C) 0.51 ± 0.069.
Turning to UCCCAGCAAUAUUACGGGUA, the “self-splicing fitness (ln)” value is -0.837 ± 0.065 (30 °C) and -0.432 ± 0.071 (37 °C).
In the same order, the values of AUAUAGCAAUAUUACGCAAC are -3.95 ± 0.32 and -1.96 ± 0.27.
In the same order, the values of ACUCAGCAAUAUUACGGUCC are -1.91 ± 0.11 and -0.708 ± 0.14.
For UCAGAGCAAUAUUACGAGUA, in that order: -3.89 ± 0.46 and -1.01 ± 0.14.
Regarding GAAGAGCAAUAUUACGUAUC, the “self-splicing fitness (ln)” value by setting is: (30 °C) -3.42 ± 0.21; (37 °C) -3.41 ± 0.22.
Turning to CCGUAGCAAUAUUACGUGUG, the “self-splicing fitness (ln)” value (30 °C) is -2.36 ± 0.095 and the “self-splicing fitness (ln)” value (37 °C) was -1.06 ± 0.082.
For UAGAAGCAAUAUUACGUGAU, in that order: -2.73 ± 0.11 and -1.84 ± 0.11.
Take GUGGAGCAAUAUUACGAGGG: the “self-splicing fitness (ln)” value (30 °C) was -4.4 ± 0.33.
For the sequence GGAGAGCAAUAUUACGCACA, where the note is “37 °C”, the “self-splicing fitness (ln)” value is -0.604 ± 0.3.
Take UACCAGCAAUAUUACGUUCA: the “self-splicing fitness (ln)” value is -0.401 ± 0.06 (30 °C) and 0.27 ± 0.08 (37 °C).
In the case of ACUGAGCAAUAUUACGGGUG, the “self-splicing fitness (ln)” value by setting is: (30 °C) -2.49 ± 0.15; (37 °C) -1.38 ± 0.15.
